Measured values published in publication PMC10694664 (The Journal of Biological Chemistry, 2023).
Positions count from the first letter of the chain named. Names may count otherwise.

B1: Fis1 (human Fis1 residues 1-125, with the N-terminal arm) (domain or fragment)
chain: MEAVLNELVSVEDLLKFEKKFQSEKAAGSVSKSTQFEYAWCLVRSKYNDDIRKGIVLLEELLPKGSKEEQRDYVFYLAVGNYRLKEYEKALKYVRGLLQTEPQNNQAKELERLIDKAMKKDGLVG
B2: Fis1 E7A (human Fis1 residues 1-125 with E7A) (domain or fragment)
chain: B1 chain with E7A
B3: Cy5-labelled Fis1ΔN (residues 9-125) (domain or fragment)
chain: VSVEDLLKFEKKFQSEKAAGSVSKSTQFEYAWCLVRSKYNDDIRKGIVLLEELLPKGSKEEQRDYVFYLAVGNYRLKEYEKALKYVRGLLQTEPQNNQAKELERLIDKAMKKDGLVG
B4: Fis1ΔN (human Fis1 residues 9-125, lacking the N-terminal arm) (domain or fragment)
chain: B3 chain

Experiments:
[1] = target: Cy5-labelled Drp1 (isoform 1) (human, UniProt O00429 1-736); assay: MST
Chain of Cy5-labelled Drp1 (isoform 1) (O00429 whole entry, canonical isoform): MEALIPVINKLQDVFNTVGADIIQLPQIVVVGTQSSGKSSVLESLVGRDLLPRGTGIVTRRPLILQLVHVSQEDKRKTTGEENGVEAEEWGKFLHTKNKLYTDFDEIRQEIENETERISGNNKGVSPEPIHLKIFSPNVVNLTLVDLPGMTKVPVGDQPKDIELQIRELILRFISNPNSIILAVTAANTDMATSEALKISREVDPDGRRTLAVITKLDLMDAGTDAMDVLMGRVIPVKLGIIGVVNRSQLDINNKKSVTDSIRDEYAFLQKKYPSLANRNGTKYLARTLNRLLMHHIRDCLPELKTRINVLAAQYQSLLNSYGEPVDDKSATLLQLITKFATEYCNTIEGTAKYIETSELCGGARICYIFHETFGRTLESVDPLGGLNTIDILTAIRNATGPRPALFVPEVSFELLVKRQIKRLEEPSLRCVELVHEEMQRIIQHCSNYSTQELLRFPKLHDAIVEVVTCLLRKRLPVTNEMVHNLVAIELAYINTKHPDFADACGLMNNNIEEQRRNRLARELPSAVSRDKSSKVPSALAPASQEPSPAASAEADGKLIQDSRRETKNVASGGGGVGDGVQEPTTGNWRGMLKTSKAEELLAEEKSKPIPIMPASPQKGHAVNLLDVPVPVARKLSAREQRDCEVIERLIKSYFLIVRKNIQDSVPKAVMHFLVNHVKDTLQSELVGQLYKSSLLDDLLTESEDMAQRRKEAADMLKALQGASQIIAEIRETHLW

[2] = target: B4; assay: NMR titration
[3] = target: T1, Dynamin-related protein 1 (Drp1) isoform 1, unlabelled (human, UniProt O00429 1-736); assay: MST
T1 sequence (O00429 whole entry, canonical isoform): as above

[4] = target: T1, Dynamin-related protein 1 (Drp1) …; assay: NMR titration

## B1
[1]
  Kd: 13 ± 3 µM

## B2
[1]
  Kd: 7 ± 1 µM

## Ac-MEAVLNEL-NH2 [Fis1 N-terminal arm peptide]
[2]
  Kd: ≥ 5000 µM

## B3
[3]
  Kd: 15 µM

## B4
[4]
  Kd: 26 to 68 µM
